Measurements taken from article doi:10.1101/282814 (bioRxiv, 2018).

Key:
[1] = biological target: the molecule itself; experiment: cryo-EM structure
[2] = biological target: the molecule itself; experiment: SEC

B1: human TRPC6 channel, full length, tags cleaved, in MSP2N2 lipid nanodiscs (natural protein, UniProt Q9Y210 1-931, looked up)
chain: MSQSPAFGPRRGSSPRGAAGAAARRNESQDYLLMDSELGEDGCPQAPLPCYGYYPCFRGSDNRLAHRRQTVLREKGRRLANRGPAYMFSDRSTSLSIEEERFLDAAEYGNIPVVRKMLEECHSLNVNCVDYMGQNALQLAVANEHLEITELLLKKENLSRVGDALLLAISKGYVRIVEAILSHPAFAEGKRLATSPSQSELQQDDFYAYDEDGTRFSHDVTPIILAAHCQEYEIVHTLLRKGARIERPHDYFCKCNDCNQKQKHDSFSHSRSRINAYKGLASPAYLSLSSEDPVMTALELSNELAVLANIEKEFKNDYKKLSMQCKDFVVGLLDLCRNTEEVEAILNGDVETLQSGDHGRPNLSRLKLAIKYEVKKFVAHPNCQQQLLSIWYENLSGLRQQTMAVKFLVVLAVAIGLPFLALIYWFAPCSKMGKIMRGPFMKFVAHAASFTIFLGLLVMNAADRFEGTKLLPNETSTDNAKQLFRMKTSCFSWMEMLIISWVIGMIWAECKEIWTQGPKEYLFELWNMLDFGMLAIFAASFIARFMAFWHASKAQSIIDANDTLKDLTKVTLGDNVKYYNLARIKWDPSDPQIISEGLYAIAVVLSFSRIAYILPANESFGPLQISLGRTVKDIFKFMVIFIMVFVAFMIGMFNLYSYYIGAKQNEAFTTVEESFKTLFWAIFGLSEVKSVVINYNHKFIENIGYVLYGVYNVTMVIVLLNMLIAMINSSFQEIEDDADVEWKFARAKLWFSYFEEGRTLPVPFNLVPSPKSLFYLLLKLKKWISELFQGHKKGFQEDAEMNKINEEKKLGILGSHEDLSKLSLDKKQVGHNKQPSIRSSEDFHLNSFNNPPRQYQKIMKRLIKRYVLQAQIDKESDEVNEGELKEIKQDISSLRYELLEEKSQNTEDLAELIRELGEKLSMEPNQEETNR
Question: For B1, which “stoichiometry N” value [1] is on record?
Answer: 4

B2: N-terminal GFP-tagged hTRPC6 (natural protein, human, UniProt Q9Y210 1-931, looked up)
chain: MSQSPAFGPRRGSSPRGAAGAAARRNESQDYLLMDSELGEDGCPQAPLPCYGYYPCFRGSDNRLAHRRQTVLREKGRRLANRGPAYMFSDRSTSLSIEEERFLDAAEYGNIPVVRKMLEECHSLNVNCVDYMGQNALQLAVANEHLEITELLLKKENLSRVGDALLLAISKGYVRIVEAILSHPAFAEGKRLATSPSQSELQQDDFYAYDEDGTRFSHDVTPIILAAHCQEYEIVHTLLRKGARIERPHDYFCKCNDCNQKQKHDSFSHSRSRINAYKGLASPAYLSLSSEDPVMTALELSNELAVLANIEKEFKNDYKKLSMQCKDFVVGLLDLCRNTEEVEAILNGDVETLQSGDHGRPNLSRLKLAIKYEVKKFVAHPNCQQQLLSIWYENLSGLRQQTMAVKFLVVLAVAIGLPFLALIYWFAPCSKMGKIMRGPFMKFVAHAASFTIFLGLLVMNAADRFEGTKLLPNETSTDNAKQLFRMKTSCFSWMEMLIISWVIGMIWAECKEIWTQGPKEYLFELWNMLDFGMLAIFAASFIARFMAFWHASKAQSIIDANDTLKDLTKVTLGDNVKYYNLARIKWDPSDPQIISEGLYAIAVVLSFSRIAYILPANESFGPLQISLGRTVKDIFKFMVIFIMVFVAFMIGMFNLYSYYIGAKQNEAFTTVEESFKTLFWAIFGLSEVKSVVINYNHKFIENIGYVLYGVYNVTMVIVLLNMLIAMINSSFQEIEDDADVEWKFARAKLWFSYFEEGRTLPVPFNLVPSPKSLFYLLLKLKKWISELFQGHKKGFQEDAEMNKINEEKKLGILGSHEDLSKLSLDKKQVGHNKQPSIRSSEDFHLNSFNNPPRQYQKIMKRLIKRYVLQAQIDKESDEVNEGELKEIKQDISSLRYELLEEKSQNTEDLAELIRELGEKLSMEPNQEETNR
Question: With B2 as the protein, how does the “stoichiometry N” value [2] read?
Answer: 4
